This passage reports koff and Kd results from publication PMC6366758 (2019).

Assay [1] addresses T1, Post-fusion F (human respiratory syncytial virus A2 …). The experiment in a line: SPR. In general terms: SPR reads the build-up and loss of mass on a sensor chip optically.
For assay [2], the target named is T1, Post-fusion F. The experiment in a line: SPR. This is another data set of the same source.

Usually koff stands for a measure of how fast the partners let go of each other. Lower therefore signals slow dissociation. By Kd is commonly meant the constant that tells how readily two partners part at equilibrium. Lower therefore signals higher affinity.

B1: Motavizumab (antibody, V domains shown)
VH: QVTLRESGPALVKPTQTLTLTCTFSGFSLSTAGMSVGWIRQPPGKALEWLADIWWDDKKHYNPSLKDRLTISKDTSKNQVVLKVTNMDPADTATYYCARDMIFNFYFDVWGQGTTVTVSS
VL: DIQMTQSPSTLSASVGDRVTITCSASSRVGYMHWYQQKPGKAPKLLIYDTSKLASGVPSRFSGSGSGTEFTLTISSLQPDDFATYYCFQGSGYPFTFGGGTKVEIK
As for B1, the koff in assay [1] is 1.44e-05 s⁻¹. For the same molecule, in assay [2], the Kd was found to be 40 pM.

B2: R4.C6 monoclonal antibody (antibody, V domains shown)
VH: EVQLQQSGPELVKPGASVKISCKASGYAFSNSWMSWVKQRPGKGLEWIGRLFPADGDITYNGHFKDKAALTADKSSNTAYIQLSSLTSEDSAVYFCARMDNSEVFWGQGTLVTVSA
VL: DILLTQSQKFMSTSVGDRVSITCKASQNVRTGVSWYQRKPGQSPKALIYLASNRHTGVPDRFTGRGSGTDFTLTISEVQSEDLADYFCLQHWTVPYTFGGGTKLEIK
For B2, in assay [1], the koff was 3.74e-05 s⁻¹.
